Measured values as given in paper PMC4005694, “Archaeal aminoacyl-tRNA synthetases interact with the ribosome to recycle tRNAs” (Nucleic Acids Research, 2014).

T1: Methanothermobacter thermautotrophicus methanogenic-type seryl-tRNA synthetase (M. thermautotrophicus, UniProt O27194 1-513)
T1 construct: methanogenic-type seryl-tRNA synthetase (mSerRS) of M. thermautotrophicus; Labelled with DY-495 in the MST experiment with L12; coupled by amines to a CM5 chip in SPR; also called mSerRS; SerRS
T1 sequence (looked up): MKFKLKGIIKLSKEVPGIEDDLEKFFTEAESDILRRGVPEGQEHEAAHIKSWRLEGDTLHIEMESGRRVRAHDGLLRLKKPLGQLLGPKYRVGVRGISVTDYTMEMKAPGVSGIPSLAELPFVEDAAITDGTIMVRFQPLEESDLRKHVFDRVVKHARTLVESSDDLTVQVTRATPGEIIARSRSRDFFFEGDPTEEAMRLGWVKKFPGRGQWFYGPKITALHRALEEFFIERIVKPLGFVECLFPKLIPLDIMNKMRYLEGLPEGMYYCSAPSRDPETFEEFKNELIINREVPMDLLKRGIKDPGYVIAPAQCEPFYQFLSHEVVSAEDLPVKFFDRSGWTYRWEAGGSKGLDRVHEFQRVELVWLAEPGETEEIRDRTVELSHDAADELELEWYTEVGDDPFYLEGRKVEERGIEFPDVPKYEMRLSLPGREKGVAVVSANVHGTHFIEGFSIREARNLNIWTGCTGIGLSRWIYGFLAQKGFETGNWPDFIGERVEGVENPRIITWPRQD

T2: elongation factor EF-G of M. thermautotrophicus, found in the cross-linking experiment with 70S ribosomes (M. thermautotrophicus (endogenous in M. …, UniProt O27131 1-730))
T2 construct: EF-G of M. thermautotrophicus, Mr 81 kDa as printed; source: endogenous, in the 70S ribosome preparation from M. thermautotrophicus cells
T2 sequence (looked up): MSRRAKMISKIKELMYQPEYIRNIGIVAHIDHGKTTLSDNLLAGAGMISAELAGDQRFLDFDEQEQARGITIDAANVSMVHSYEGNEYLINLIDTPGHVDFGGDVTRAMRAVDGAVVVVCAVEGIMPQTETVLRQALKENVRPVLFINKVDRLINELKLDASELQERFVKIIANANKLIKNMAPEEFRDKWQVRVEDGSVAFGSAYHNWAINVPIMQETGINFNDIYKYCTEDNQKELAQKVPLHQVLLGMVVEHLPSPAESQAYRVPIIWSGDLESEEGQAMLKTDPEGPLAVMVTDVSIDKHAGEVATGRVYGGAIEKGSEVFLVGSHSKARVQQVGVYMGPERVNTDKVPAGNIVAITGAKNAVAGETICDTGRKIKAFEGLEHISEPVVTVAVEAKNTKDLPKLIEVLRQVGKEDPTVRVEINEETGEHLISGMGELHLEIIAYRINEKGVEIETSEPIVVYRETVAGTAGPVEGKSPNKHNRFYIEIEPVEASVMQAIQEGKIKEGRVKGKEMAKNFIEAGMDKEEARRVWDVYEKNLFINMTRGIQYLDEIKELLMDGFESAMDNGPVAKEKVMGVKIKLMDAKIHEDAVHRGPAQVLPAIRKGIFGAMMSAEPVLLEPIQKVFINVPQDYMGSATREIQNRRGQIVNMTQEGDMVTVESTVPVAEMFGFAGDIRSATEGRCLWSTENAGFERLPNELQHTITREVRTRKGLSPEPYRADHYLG

B1: ribosomal protein L10 (P0 homologue) of M. thermautotrophicus, as it stands in the ribosome (natural protein, UniProt O27717 1-336, looked up)
chain: MAHVAEWKKKEVQELHDLIKGYEVVGIANLADIPARQLQKMRQTLRDSALIRMSKKTLISLALEKAGRELENVDSLSDYMEGQPALIFTDMNPFKLFKILEDSKTPAPAKPGAIAPDDIVVPKGDTGFAPGPILGELQQIGIPAKIEKGKIVVSNDHVVVKAGEEIPPKVAGILTRLDIQPLEVGIDLRAAYENQTVYTADVLTIDEEKTLSDIQKAFSQAFNLSVNAVIYTRETMPAIIQKAASKSFNLAYNASILTSETTDLLLAKAYAQMLALAAAAAEINDEAVDDELKEKLSSRAAAPAPEEKEEEVEEEAEEEEEEEEEDAAAGLGALFG
notes: ribosomal protein L10 (P0 homologue) of M. thermautotrophicus, Mr 37 kDa as printed; Cross-linked while part of the ribosome; source: endogenous, in 70S ribosomes purified from M. thermautotrophicus cells
B2: recombinant ribosomal protein L10 of M. thermautotrophicus (natural protein, UniProt O27717 1-336, looked up)
chain: B1 chain
notes: ribosomal protein L10 (P0 homologue) of M. thermautotrophicus; gene inserted into pGEX-6P-2 via BamHI and SalI; The methods say both that the GST tag was removed and that GST-tagged proteins are appropriate for SPR; also called P0; source: E. coli BL21 Rosetta, purified (GST-Sepharose)
B3: Methanothermobacter thermautotrophicus arginyl-tRNA synthetase (enzyme, M. thermautotrophicus, UniProt O27496 1-560, looked up)
chain: MFRYIEKEARDSITAALEKLGIKVPPEIKLEEPPNPQLGDLASTVSFELAGKLRRAPIEITADIMSVIETPEIFETIESKGPYINFFVDYGRFSSRLLESIQDDYGSHPPRDERVILEHTSANPNGPLHIGHIRNAIIGDSLARILRMAGYDVETQYYVNDMGRQIAMIVWGLLNLDGDLEDYPGDKMDHRVGKLYFEVNQRLKENPGIRDEVDELIRKYEAGENEELFRKVVEYCLSGMEETMKRLHVHHDRFVWEGQFVRDGTVDRVIESLRKTGYTGENDVLYLDLEEFGLEKELVLTRSDGTSLYSTRDIAYHLQKSEEGDVIIDVLGSDHKLAAEQVGIAVELLGGKRPEVIFYEFITLPEGSMSTRRGVFISVDELMDEAHSRALHEVKKRRDLPDDVADDIAESIGNGAIRYYIARLSPEKHIVFRWDDALSFERGCASIQYAHARACKLLEKASFTGEEDIEDGWKPEGDERELVRLLARFPVVVEESALARRVHPVAQYAQDLANTFNSFYRSTPVIGSDFEGARLRLVDSVRKTLRNALNLLGIHAPETM
notes: arginyl-tRNA synthetase of M. thermautotrophicus; gene inserted into pPROex-Htb as a BamHI and XhoI cassette; His-tagged ArgRS is named only for the Ni-NTA SPR surface; also called ArgRS; source: E. coli BL21 Rosetta, purified (Ni-NTA agarose)
B4: ribosomal protein L3p of M. thermautotrophicus, as it stands in the ribosome (natural protein, UniProt O26110 1-337, looked up)
chain: MARHHQPRKGSVAFSPRKRAARETPRVKSWPQVDEPGLLALAGYKAGMTHVMMVDNQKNSPTEGMEVSTPVTILEVPPLTVMAVRTYEKTSRGLKTLGEVLATETKDDLRRKLTPPADDYDQEAAIEKIRSNMEYVADVRVIVHTNPRLASVPKKKPEVFECGLGGKTPEEKFEYALEILGKDVRASEIFSEGAFVDAIAVTKGKGFQGPVKRWGIRIQYGKAARSSKGRHIGSLGPWTPSRTMWTVPQAGQMGYHRRTEYNKQILKIGDASEADLVNPDGGFVRYGLVRNDYVMIKGSVPGPTKRLVVLRKAIRAAGKQEEAPQINYISTASKQGV
notes: ribosomal protein L3 of M. thermautotrophicus, Mr 37 kDa as printed; Cross-linked while part of the ribosome; source: endogenous, in 70S ribosomes purified from M. thermautotrophicus cells
B5: recombinant ribosomal protein L3 of M. thermautotrophicus (natural protein, UniProt O26110 1-337, looked up)
chain: B4 chain
notes: ribosomal protein L3 of M. thermautotrophicus; gene inserted into pGEX-6P-2 via BamHI and EcoRI; The methods say both that the GST tag was removed and that GST-tagged proteins are appropriate for SPR; source: E. coli BL21 Rosetta, purified (GST-Sepharose)
B6: recombinant ribosomal protein L6 of M. thermautotrophicus (natural protein)
chain: not shown
notes: ribosomal protein L6 of M. thermautotrophicus; whole-length gene amplified from genomic DNA, cloned into pPROex-Htb via BamHI and SalI; source: E. coli BL21 Rosetta, purified (Ni-NTA agarose)
B7: recombinant ribosomal protein L12 of M. thermautotrophicus (natural protein, UniProt P05394 1-101, looked up)
chain: MEYIYAAMLLHTTGKEINEENVKSVLEAAGAEVDDARVKALIAALEDVDIEEAMETTAVAAAPAAAAAPAAAEEAEEEAEEEEEEEEAEEEAAAGLGALFG
notes: ribosomal protein L12 (P1 homologue) of M. thermautotrophicus; whole-length gene amplified from genomic DNA, cloned into pPROex-Htb via NcoI and SalI; also called P1; source: E. coli BL21 Rosetta, purified (Ni-NTA agarose)

How the values were obtained:
Conditions in all cases: both partners purified
[1] = molecular target: B3; experiment: cross-linking; 70S ribosomes incubated with mSerRS or ArgRS; EDC; quenched; complexes pelleted; SDS-PAGE and mass spectrometry
[2] = molecular target: B3; experiment: SPR; ArgRS with ribosomal proteins; Ni-NTA surface used to immobilise His-tagged ArgRS, L6 or L12; which was held for which pair is not told; 25°C, Biacore T100
[3] = molecular target: T1, Methanothermobacter thermautotrophicus …; experiment: SPR; mSerRS amine-coupled to a CM5 chip (~800 RU), ribosomal proteins or controls as analytes; 25°C, Biacore T100, 10 µl/min; steady state affinity model
[4] = molecular target: T2, elongation factor EF-G of M. …; experiment: cross-linking; 70S ribosomes incubated with mSerRS or ArgRS; EDC; quenched; complexes pelleted; SDS-PAGE and mass spectrometry
[5] = molecular target: T1, Methanothermobacter thermautotrophicus …; experiment: MST; labelled mSerRS kept constant, unlabelled L12 titrated 0.528 nM-17.32 µM; Monolith NT.115

| Binder | binding result [2] | Kd [3] | also measured |
| --- | --- | --- | --- |
| B1 | – | – | binding result [1]: binds |
| B2 | binds | 39 nM | – |
| B3 | – | – | binding result [4]: binds |
| B4 | – | – | binding result [1]: binds |
| B5 | binds | 54 nM | – |
| B6 | binds | 240 nM | – |
| B7 | – | 170 nM | Kd [5]: 460 nM |
